The source of these data is patent publication US20140127211A1.

In assay [1] the target is Notch 1-3 NRR domain swap chimera: C of Notch1; A, B, hd1, hd2 of Notch3 (row 6, unnamed on the sheet) (human). As to the kind of experiment: ELISA: NRR-Fc protein coated at 1 ug/ml, antibody applied at 5 ug/ml, goat anti-human Fc-HRP, TMB, O.D. 450 nM. (An ELISA detects its analyte on a solid surface through an enzyme-linked reagent.)
The target of assay [2] is Notch 1-3 NRR domain swap chimera: B of Notch1; A, C, hd1, hd2 of Notch3 (row 5, unnamed on the sheet) (human). Described as above.

B1: rat-human chimeric antibody 75 (ch75) (antibody, V domains shown)
VH: QVKLLQSGAALVKPGASVKMSCKASGYAFTDYWVTWVKQSHGKSLEWIGEISPNSGGTNFNEKFKGKATLTVDKSTSTAYMELSRLTSEDSAIYYCTRGEIRYNWFAYWGQGTLVTVSS
VL: NIVMTQSPKSMSISVGDRVTMNCKASQNVGNNIAWYQQKPGQSPKLLIYYASNRYTGVPDRFTGGGYGTDFTLTINSMQAEDAAFYYCQRLYNSPFTFGSGTKLEIK
For the molecule B1, the O.D. 450 nM (ELISA, relative binding capacity) was found to be 0.8 in assay [1] and 2.37 in assay [2].
